The nanobody polyreactivity screen of Harvey et al. (2022)

Assay: yeast display, Sf9 membrane polyspecificity reagent, FACS + sequencing; frameworks hold sequencing errors
Procedure, shortened: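 Galactose induction of a Saccharomyces cerevisiae BJ5465 synthetic nanobody display library ran 36–48 hours. The cells were then stained for 1 hour at 4 °C with 10% biotinylated, detergent-solubilized Sf9 membrane reagent, pulled down on streptavidin microbeads and FACS-sorted into low and high (top ~1%) gates on expression and reagent-binding fluorescence. Labels for polyreactivity follow the gate of origin.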

Row | Sequence | polyreactivity (PSR sort gate)
1 | QVQLLESGGGLVQAGGSLRLSCMASGSILGDRMSWYRQAPGKEHELVATIYDGGITYYADSMKGRFTISRDNAKNTLYLQMNSLRPEDTAVYYCGACFEGYRYHVYCGQGTQVTVSS | low polyreactivity
2 | QVQLLESGGGLVQAGGSLRLSCPPSGFIFPRNVMGWYRQAPGKERELVAAISRSGGSTYYADSVKGRYTISRDNAKNTVYLQLNSQKPEDTAVYYCAAEIPVYQGTGDYDYWGQGTQVTVSS | low polyreactivity
3 | QVQLLESGGGLVQAGGSLRLSFAASGSTSRKYAMGLYRQAPGKERVLVAGITKGGGGTYYADSVKGRFTISRDNAKNTVYLLMNSLKPEDTAVYYCAKYYGSGYYIYDYWGLGTQVTVSS | low polyreactivity
4 | QVQLLESGGGLVQAGGSLRLTCAASGRTFGRYAKGWYRQAPGKERELVADITGGGSTNYADSVKGRFTISRDNAKNTVYLQMKSLKPEDTAVYYCAAGFHKRVTPEILYDYWGQGTQVTVSS | low polyreactivity
5 | QVQLLESGGGLVQAGGSLRLTCAASGSTFRYNAMGWYRQAPGKERELVAAISSGSSTNYADSVKGRFTLSRDNAKNTVYLQMNSLKPEDTAVYYCAAQPGYYDDFYYWGQGTQVTVSS | low polyreactivity
6 | QVQLLESGGGLVQAGRSLRLSCAASGSIFRSYAMGWSRQAPGKERELVAAISRRGGSTYYADSVKGRFTISRDNAKNTVYLQMNSLKPEDTAVYYCAADRTGPYDYWGQGTQVTVSS | high polyreactivity
7 | QVQLLESGGGLVQEGGSLRLSCAASGFIFSKNVMGWYRHAPGKERELVARITRSGGTTYYADSVKGRFTISRDNAKYTVYLQMNSLKPEDTAVYYCAARRYGYTSITWYDYWGQGTQVTVSS | high polyreactivity
8 | QVQLLESGGGLVQEGGSLRLSCAASGSTFHSYAMGWYRQAPGKERELVAGINRTGGSTYYADSVKGRFTISRDNAKNTVYLQMNSLKPEDTAVYYCAAVSYYASVYRYDYWGQGTQVTVSS | low polyreactivity
9 | QVQLLESGGGLVQPGGSLRLSCAASGRTFRLNGMGWNRQAPGKERELVAAITWSGGRTYYADSVKGRFTISRDNAKKTVYVQMNSLTPEDTAVYYCAADFRDGFTSRYGYWGQGTQVTVSS | high polyreactivity
10 | QVQLLESGGGLVQSGGSLRLSCAASGRNFTPYAMGWYRQAPGKERELVAAITGSGGITYYADSVKGRFTISRDNAKNTVYFQMNSLKPVDTAVYYCAKDWWQSDSVGDYTHYEYDYWGQGTQVTVSS | low polyreactivity
11 | QVQLLESGRGLVQAGGSLRLSCAASGRTFVGYAMVWYRKAHGKERELVAGITASGGTTYYADSVKGRFTISRDNAKNTVYLQMNSLKPEDTAVYYCATTTTRYRYKKNYYWGQGIQVTVSS | high polyreactivity
12 | QVQLLESGRGLVQAGGSLRLSCAPSGLTFRYMAMGWYIQAPGKERELVAAINSGGRTNYADSVKGRFTISRDNAKNTVFLQMNSLKPEDTAVYYCAAVRHWTVGWTYYYWGQGTQVTVSS | high polyreactivity
13 | QVQLLESWGGLVHAGGSVRLSCAASGSIFGYNAMGWYRESPGKEREWVAAISWDGGSTYYADSVKGRFTISRDNAKYNVFLQMNSLKPEDTAVYYCAAEGLRFVYEYWGQGTQVTVSS | low polyreactivity
14 | QVQLLESWGGLVQAGGSLRLSCAASGSIFSYYAMGWYRQAPGKERELVATISSGDSTYYADTVKGRFTISRDNAKNTVYLQMHSLNPEDTEVYYCARKPRIRYYPAPYDYWGQGTQVTVSS | low polyreactivity
15 | QVQLLETGGGLVQAGGSLRLSCAASGSIFSRNDMGWYRPAPGKERELVAAITWSGGSTYYADSVKGRFTISRDNAKNTVYLQMNSLKPEDTAVYYCATRYTRVYDCWGQGTLVTVSS | high polyreactivity
16 | QVQLLGSGGGLVQACGSLRLSCSASGSISHYIFMGWYRQAPAKEREFVAGIGYGGTTNYADSVKGRFTISRDNAKNTVYLQMNSLKPEDTAMYYCAAREATAFYLYYCGQGTQVTVSS | low polyreactivity
17 | QVQLQASGVGLVQSGGSLRLSCASRGTNFTARFMGWYRQAPGKERELVATITDGGNTNHADRVKGRFTISRDNAKNTVYLQMNSLKPEDAAVYYCAAGEVDNDTLLYWGQGSQVTVSS | low polyreactivity
18 | QVQLQEGGGGLVQAGGSLRLSCAASGYISYGDVMGWYRQAPGEERELVASIGLDATTNYADSVKGRFTISRDNAKITVYLQMNSLKPEATAVYYCAADVGSGVMCGYWGQGTQMTVSS | high polyreactivity
19 | QVQLQEGGGLVQAGGSLRLSCAASGYISSRPAMGWYRQAPGKERAFVATIADGTSTYYADSVKGRFTISRDNAINTVYLQMNSLKPEDTSVYYWAAAYNTEFDLSYWGQGTQVTVSS | high polyreactivity
20 | QVQLQEGGGLVQAGGSLRLSCAASGYISSRPAMGWYRQAPGLERAFVATIADGTSTDYADSVKGRFTISRDNAKNTVYLQMYRLQPEDTAVNYCAAAYNTQYYLSYWGQGTQVTVRS | high polyreactivity
21 | QVQLQERAAWCRRAGSLRLSCAASGNISDYYFMGWYRQAPGKERELVAAIAPGSNTYYADSVKGRFTISRDNAKNTVYLQMNSLKPEDTAVCFCAADSTQYTWFDYWGQGTQVTVSS | low polyreactivity
22 | QVQLQESAGGLVQAGGSLRLRCSASGYSSCDASMGWYRQAPGKERELAASITKGSSTNYADSVKGRFTIRDNAKNTVYLQMNSLKPEDTAVWYCGVTYPYWGDYTYWGKGTQVTVSS | low polyreactivity

Row | Sequence | polyreactivity (PSR sort gate)
23 | QVQLQESAGVLVQAGGSLRLRCSASGYISCHASMGWYRQAPGKEGELAASITKGSSTNYADSVKGRFTIRDNAINTVFLQMNSLKPEDTAVCYCAVTYPYWGDYTYWGQGTQVTVSS | low polyreactivity
24 | QVQLQESCGGLVQAGGSLRLSCAASGTIITARFMGWYRQAPGKERELVATITDGGNNNHAESVKGRFTISRDNAKNTVYLQMNSLKPEDAAVYYCAAGEVDNDTLLYWGQGSQVTVSS | low polyreactivity
25 | QVQLQESGDGLVQAVGSLRLSCAASGNISGDYYMGWYRQAPGKERELVAGIDAFGSSTNYADCVKGRFTISRDNAKNTVYLQMNRLKPEDTAVYYCAARPDGDRLFSYWGQGTQVTVSS | low polyreactivity
26 | QVQLQESGDGLVQAVGSLRLSCAASGYISGYYYMGWYRQAPGKERELVAGIDAFGSSTNYADCVKGRFTISRDNAKNTVYLQMNSPNPEDTAVYYCAAEFDDWDYHSYWGQGTQVSVSS | low polyreactivity
27 | QVQLQESGDGLVQAVGSLRLSCAASGYISGYYYMGWYRQAPGKERELVAGIDAFGSSTNYADCVKGRFTISRDNAKTTVYLPPNSPKPEDTAVYYCAAEYDDWDYHWYWGQGTQVTVSS | low polyreactivity
28 | QVQLQESGGDLEQAGGSLRLSCTASGTISDVRDMGWYRQAPGKERELVATISYVTITYYSDSVKGRFTISRASEKHRVSADDEPETGRYRGVLLRYYWGLGTQVTVSS | low polyreactivity
29 | QVQLQESGGDLEQAGGSLRLSCTASGTISDVRVMGWYRQAPGKERELVATISYVTITYYADSVKGRFTISRDSEKHRVSADDEPESGRYRGVLLRYYWGLGTQVTVSS | low polyreactivity
30 | QVQLQESGGGLEHAGGSLRLSCAASGNIFLSIFMGWYRQAPGKEREFVAGIGSGTNTNYADSVKGRFTISRDNANNTVYLQMNSLKPEDTAVYYCNAVWGSHYPTYAKLSRDYWGQGTQVTVSS | high polyreactivity
31 | QVQLQESGGGLEQAGGCLRLSCAASGSIFTYAVMGWYRQAHGKEHELVATIDTGSSTYYADSVKGRISISRDNAKNTLYLQMNSLKPEDTEVYYCAVNTYCRVRYRYWVQGTQVTVSS | high polyreactivity
32 | QVQLQESGGGLEQAGGDLRLSCAASGNIFRDYIMGWYRQAPGKEREFVAGIDRGANTNYADSVKGRFTISRDNAKNTVYLQMNSLKPEDTAVYYCAVHTAIVADFIYWGQGTQVTVSS | low polyreactivity
33 | QVQLQESGGGLEQAGGSLRLSCAASGIIFDNPNMGWYRQAPGKERELVATINSGATTNYADSVKGRFTISRDNAKNTVYLQMNSLIPEDTAVYYCAVDLSPTYFYYWGQGTQVTVSS | high polyreactivity
34 | QVQLQESGGGLEQAGGSLRLSCAASGYISHIGTMGWYRQAPGKEREFVATIVVGSTTNYADSVKRRFTISRDNAKNTVYLQPESGRYRGVLLRGWLLAVGKFTYWGQGTQETVSS | low polyreactivity
35 | QVQLQESGGGLEQAGGSLRLSCAESGIIFDNPNMGWYRQAPGKERELVATINSGATTNYADSVKGRFTISRDNAKNTVYLQMNSLIPEDTAVYYCSVDLSPTYFYVWGQGTQVTVSS | high polyreactivity
36 | QVQLQESGGGLLQAGGSLRLSCAASGSISQYIFMGWYRQAPGKEREFVAGIGYGGTTNYADSVTGRFTISRDNAKNTVYLQMNSLKPEDTAMYYCSAREATEFYLYYWGQGTQVTVSS | low polyreactivity
37 | QVQLQESGGGLMQAGGNLRLSCAASGYISTHYDMDWSRQAPGKERELVARIDDGAITNYADSVKGRFTISRDNATNTVYLQMNSLKPEDTAVYYCAVYSGDDYYHDYWGQGTQVTVSS | low polyreactivity
38 | QVQLQESGGGLMQAGGNLRLSCAASGYISTHYYMHWYRQAPGKERELVARIDDGAITNYADSVKGRFTISRDNAKNTVYLLMNSLKPEDTAVYYCAVYSGDDYYHDFWGQGTKVTVSS | low polyreactivity
39 | QVQLQESGGGLVHACGSLRPSCAASGSISDSWTMSWYRQAPGKEREFVAGITWGGTTNYADSVKGRFTISRDNAKNTVYLQMNSLKPEDSAVYYCNARQRTYYRTHRIRHKGNGYWGQGTQVTVSS | low polyreactivity
40 | QVQLQESGGGLVKAGGDLRLSCAASGNIFRDYIMGWYRQAPGKEREFVAGIDRGANTNYADSVKGRFTISRDNAKNTVYLQMNSLKPVDTAVYYCGVHTAIVPDFIYWGQGTQVTVSS | low polyreactivity
41 | QVQLQESGGGLVLAGGSLRLSCAASGSISAQAYMGWDRQAPGKEREHVAGINYGDNTNYADSVKGRFTISRDNEHRVSADEQPETGRYRVVLLRGFLELFYYYIYWGQGTQVTVSS | high polyreactivity
42 | QVQLQESGGGLVQAGGCLRLRCAASRNISGSSDLGWYHQAPGKEREFVASMTSGGTTYYADSVKGRFTISRDNAKYTVYLQMKSQKTEDTAVYYCAVGDPADAEFGYWGQGTQVTVSS | low polyreactivity
43 | QVQLQESGGGLVQAGGCLRLSCAASGSIFDPDYMGWYHQAPGKESELVASISLGRITYYADSVKGRFTINRDNAKNTVYLQMNSLKPEDTAVYYCAVRVETIYYYSYWGQGTQVTVSS | high polyreactivity
44 | QVQLQESGGGLVQAGGRLPMSFAASGNIFDADIMGWYRQAPGKERELVASITDGRRTNYADSVKGRYTTSRDSEKNTVYLQMNSLKPEDTAVYYCAAIAYPVVPTYFDYDSDYFHWGQGTQVTVSS | high polyreactivity
